Patent WO2018134681A1 (dated 2018)

What was measured:
[1] = biological target: T1, human TGF-β1 (human, UniProt P01137 279-390); assay: cell-based or functional assay
[2] = biological target: T2, human TGF-β2 (human, UniProt P61812 21-414); assay: SPR, Biacore T200, TGF-β homodimer immobilized on CM5 chip, Ab1 injected, 1:1 model
T2 chain: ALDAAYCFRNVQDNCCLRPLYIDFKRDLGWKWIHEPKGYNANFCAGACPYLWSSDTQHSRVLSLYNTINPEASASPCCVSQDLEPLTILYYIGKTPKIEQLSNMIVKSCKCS

[3] = biological target: T1, human TGF-β1; assay: as above
[4] = biological target: T3, murine TGF-β1 (identical in amino acid sequence to rat TGF-β1) (mouse, UniProt P04202 279-390); assay: as above
T3 construct: mature; also called Murine and Rat TGF-βΙ; murine/rat TGF-β1
T3 sequence (P04202 279-390 limits assumed): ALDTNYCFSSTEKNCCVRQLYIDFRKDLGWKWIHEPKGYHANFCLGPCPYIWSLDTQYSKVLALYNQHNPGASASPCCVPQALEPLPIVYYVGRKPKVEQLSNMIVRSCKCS

T1 sequence (P01137 279-390 limits assumed): as the sequence (P04202 279-390 limits assumed) above, with S75A counted along it

B1: Ab1 (antibody, human IgG4 S228P, kappa)
heavy: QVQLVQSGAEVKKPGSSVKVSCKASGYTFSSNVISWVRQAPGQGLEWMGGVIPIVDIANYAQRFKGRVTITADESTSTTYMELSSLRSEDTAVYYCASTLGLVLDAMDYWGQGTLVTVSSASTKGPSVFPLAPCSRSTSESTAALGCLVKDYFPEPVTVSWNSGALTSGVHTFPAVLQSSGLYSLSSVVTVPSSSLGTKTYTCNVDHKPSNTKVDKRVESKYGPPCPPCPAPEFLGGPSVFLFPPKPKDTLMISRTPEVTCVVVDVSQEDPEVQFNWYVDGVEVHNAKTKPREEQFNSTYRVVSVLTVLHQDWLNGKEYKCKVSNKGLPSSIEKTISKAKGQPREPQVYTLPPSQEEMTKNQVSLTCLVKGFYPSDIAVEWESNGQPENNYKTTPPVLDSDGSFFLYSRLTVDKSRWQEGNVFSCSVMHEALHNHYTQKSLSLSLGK
light: ETVLTQSPGTLSLSPGERATLSCRASQSLGSSYLAWYQQKPGQAPRLLIYGASSRAPGIPDRFSGSGSGTDFTLTISRLEPEDFAVYYCQQYADSPITFGQGTRLEIKRTVAAPSVFIFPPSDEQLKSGTASVVCLLNNFYPREAKVQWKVDNALQSGNSQESVTEQDSKDSTYSLSSTLTLSKADYEKHKVYACEVTHQGLSSPVTKSFNRGEC
notes: also called anti-TGF-β antibody Ab1; pan-TGF-β antibody
NFAT-driven luciferase activity, fold change against isotype control Ab [1]: 1.45 fold change
NFAT-driven luciferase activity, fold change against no Ab control [1]: 1.45 fold change
Kd [2]: 3 nM
Kd [3]: 1.48 nM
Kd [4]: 2.8 nM
